Reference: patent US20020168748

Legend:
[1] = biological target: PKC1 tagged at its COOH-terminus with the HA epitope (PKC1^HA) (UniProt P24583)
[2] = biological target: 1,3-β-glucan synthase (GS) complex (UniProt P38631)
1,3-β-glucan synthase (GS) complex, sequence (P38631 whole entry, looked up, one chain of several): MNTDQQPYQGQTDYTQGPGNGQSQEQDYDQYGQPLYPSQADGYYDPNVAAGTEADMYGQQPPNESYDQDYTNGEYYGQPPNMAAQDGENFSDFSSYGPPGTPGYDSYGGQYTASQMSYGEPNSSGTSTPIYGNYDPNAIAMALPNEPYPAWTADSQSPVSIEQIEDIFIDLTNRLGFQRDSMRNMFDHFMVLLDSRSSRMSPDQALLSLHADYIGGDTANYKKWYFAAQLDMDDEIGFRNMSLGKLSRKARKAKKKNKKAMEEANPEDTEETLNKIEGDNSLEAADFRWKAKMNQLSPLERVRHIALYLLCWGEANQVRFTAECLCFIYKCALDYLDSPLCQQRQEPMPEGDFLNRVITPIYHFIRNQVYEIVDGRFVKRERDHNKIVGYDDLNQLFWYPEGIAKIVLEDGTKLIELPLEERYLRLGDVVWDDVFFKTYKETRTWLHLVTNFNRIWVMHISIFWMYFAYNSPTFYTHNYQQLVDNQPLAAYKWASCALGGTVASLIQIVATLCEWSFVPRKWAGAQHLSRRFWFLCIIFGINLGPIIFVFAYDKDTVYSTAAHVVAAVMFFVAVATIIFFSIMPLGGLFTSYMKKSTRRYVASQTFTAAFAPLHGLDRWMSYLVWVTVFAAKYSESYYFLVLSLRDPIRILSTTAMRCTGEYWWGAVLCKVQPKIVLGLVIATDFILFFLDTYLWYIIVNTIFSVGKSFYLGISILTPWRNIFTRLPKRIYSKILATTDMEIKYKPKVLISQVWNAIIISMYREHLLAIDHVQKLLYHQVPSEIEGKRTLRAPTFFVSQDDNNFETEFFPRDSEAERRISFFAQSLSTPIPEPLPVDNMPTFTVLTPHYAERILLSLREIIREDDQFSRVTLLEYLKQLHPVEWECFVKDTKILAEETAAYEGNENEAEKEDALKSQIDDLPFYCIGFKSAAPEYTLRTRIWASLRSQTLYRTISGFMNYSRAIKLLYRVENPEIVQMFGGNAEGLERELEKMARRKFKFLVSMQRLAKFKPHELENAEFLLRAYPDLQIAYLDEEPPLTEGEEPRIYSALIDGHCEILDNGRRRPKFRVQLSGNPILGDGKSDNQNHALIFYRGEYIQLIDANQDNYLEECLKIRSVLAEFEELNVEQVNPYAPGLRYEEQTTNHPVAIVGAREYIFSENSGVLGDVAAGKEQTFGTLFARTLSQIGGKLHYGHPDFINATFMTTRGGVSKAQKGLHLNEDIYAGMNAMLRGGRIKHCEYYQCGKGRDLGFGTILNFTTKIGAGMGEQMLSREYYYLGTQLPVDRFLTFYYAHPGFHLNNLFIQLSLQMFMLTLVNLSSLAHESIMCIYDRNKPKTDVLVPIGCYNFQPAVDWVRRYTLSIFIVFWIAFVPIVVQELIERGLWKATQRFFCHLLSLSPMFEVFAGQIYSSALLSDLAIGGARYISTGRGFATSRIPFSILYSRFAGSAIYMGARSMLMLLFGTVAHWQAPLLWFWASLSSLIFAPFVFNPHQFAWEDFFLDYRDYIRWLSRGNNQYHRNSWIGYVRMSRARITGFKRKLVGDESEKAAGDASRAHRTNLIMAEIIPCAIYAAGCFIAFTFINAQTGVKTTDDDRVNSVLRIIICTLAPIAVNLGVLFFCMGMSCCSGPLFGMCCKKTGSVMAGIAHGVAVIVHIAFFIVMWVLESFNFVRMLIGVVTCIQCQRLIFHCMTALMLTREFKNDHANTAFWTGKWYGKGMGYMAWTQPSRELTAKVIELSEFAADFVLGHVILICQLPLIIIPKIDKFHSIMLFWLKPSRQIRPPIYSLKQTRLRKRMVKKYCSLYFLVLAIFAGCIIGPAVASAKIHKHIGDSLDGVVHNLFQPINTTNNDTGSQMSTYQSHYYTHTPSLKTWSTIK

PKC1 tagged at its COOH-terminus with the HA epitope (PKC1^HA), sequence (P24583 whole entry): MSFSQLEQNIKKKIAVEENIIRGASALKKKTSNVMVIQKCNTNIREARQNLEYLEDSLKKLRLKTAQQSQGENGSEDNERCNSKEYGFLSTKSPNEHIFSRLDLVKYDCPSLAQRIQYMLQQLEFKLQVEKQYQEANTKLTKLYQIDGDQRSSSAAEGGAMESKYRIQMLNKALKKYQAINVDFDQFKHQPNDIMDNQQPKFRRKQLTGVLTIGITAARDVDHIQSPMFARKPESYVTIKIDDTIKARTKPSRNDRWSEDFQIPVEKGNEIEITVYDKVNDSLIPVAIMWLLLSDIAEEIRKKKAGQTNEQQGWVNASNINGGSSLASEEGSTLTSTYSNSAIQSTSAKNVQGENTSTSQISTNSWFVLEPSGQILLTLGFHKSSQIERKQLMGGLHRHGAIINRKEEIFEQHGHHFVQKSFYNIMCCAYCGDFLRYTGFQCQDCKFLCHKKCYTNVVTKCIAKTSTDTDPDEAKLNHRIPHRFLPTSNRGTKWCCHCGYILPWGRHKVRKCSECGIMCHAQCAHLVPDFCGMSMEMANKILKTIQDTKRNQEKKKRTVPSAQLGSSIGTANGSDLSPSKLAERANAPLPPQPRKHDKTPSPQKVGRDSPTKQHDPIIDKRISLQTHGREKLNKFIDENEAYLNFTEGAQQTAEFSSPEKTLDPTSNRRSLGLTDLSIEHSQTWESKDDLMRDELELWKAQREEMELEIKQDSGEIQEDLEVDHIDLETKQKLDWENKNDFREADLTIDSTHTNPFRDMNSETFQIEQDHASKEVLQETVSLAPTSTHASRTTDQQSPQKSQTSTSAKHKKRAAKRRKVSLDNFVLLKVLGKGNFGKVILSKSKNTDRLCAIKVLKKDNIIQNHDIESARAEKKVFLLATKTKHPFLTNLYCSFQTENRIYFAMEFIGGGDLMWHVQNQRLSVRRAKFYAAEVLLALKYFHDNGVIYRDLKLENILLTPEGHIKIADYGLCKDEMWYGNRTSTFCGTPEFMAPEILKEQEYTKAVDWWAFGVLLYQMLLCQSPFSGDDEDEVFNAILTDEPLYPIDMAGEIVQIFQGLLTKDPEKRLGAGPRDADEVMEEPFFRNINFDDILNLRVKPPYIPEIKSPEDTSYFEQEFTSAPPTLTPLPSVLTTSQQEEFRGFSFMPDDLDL

Substance | Phosphorylation of synthetic Bck1 peptide by PKC1^HA [1] | GS activity in the membrane fraction of the cal1-1 mutant [2]
Recombinant GST-Cdc42 | GST-Cdc42 did not confer cofactor-dependent stimulation on PKC1 | 
Recombinant mutant Rho1 (G19V), constitutively active GST-Rho1 |  | GS activity was restored by the addition of constitutively activated Rho1
